Results reported in PMC6344286 (Arteriosclerosis, thrombosis, and vascular biology, 2019).

Key:
[1] = target: Protein disulfide isomerase A1 (PDI), recombinant wild type (human, UniProt P07237 18-508); test: non-reducing SDS-PAGE of a disulfide-linked complex
[2] = target: T1, p47phox, recombinant wild type (human), P14598; test: as above; conditions: remark: other sources report otherwise
T1 chain: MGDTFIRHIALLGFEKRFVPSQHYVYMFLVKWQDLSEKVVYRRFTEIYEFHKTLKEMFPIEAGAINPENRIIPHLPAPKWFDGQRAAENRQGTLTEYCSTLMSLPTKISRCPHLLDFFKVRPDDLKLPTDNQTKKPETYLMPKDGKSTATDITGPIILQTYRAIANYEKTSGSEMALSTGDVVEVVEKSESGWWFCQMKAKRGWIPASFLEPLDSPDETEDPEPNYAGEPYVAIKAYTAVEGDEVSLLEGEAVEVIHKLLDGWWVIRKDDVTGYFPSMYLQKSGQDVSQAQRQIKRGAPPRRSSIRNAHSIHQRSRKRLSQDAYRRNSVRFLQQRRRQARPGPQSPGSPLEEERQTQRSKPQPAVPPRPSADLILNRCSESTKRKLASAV

Sequence of Protein disulfide isomerase A1 (PDI), recombinant wild type (P07237 18-508): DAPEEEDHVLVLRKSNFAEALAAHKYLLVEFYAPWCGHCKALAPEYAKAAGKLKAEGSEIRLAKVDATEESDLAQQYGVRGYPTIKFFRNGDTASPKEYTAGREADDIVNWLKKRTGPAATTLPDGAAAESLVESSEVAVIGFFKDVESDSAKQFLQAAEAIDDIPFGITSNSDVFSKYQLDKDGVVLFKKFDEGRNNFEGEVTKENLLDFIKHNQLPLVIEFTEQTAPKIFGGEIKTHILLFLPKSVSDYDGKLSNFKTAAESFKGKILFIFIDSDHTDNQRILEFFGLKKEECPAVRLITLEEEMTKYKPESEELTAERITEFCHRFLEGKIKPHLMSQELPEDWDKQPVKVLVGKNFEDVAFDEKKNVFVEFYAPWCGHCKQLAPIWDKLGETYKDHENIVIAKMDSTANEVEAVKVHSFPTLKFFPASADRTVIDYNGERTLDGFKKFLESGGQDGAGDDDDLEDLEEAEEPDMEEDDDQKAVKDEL

B1: p47phox, recombinant wild type (natural protein, human, UniProt P14598 1-390, looked up)
chain: MGDTFIRHIALLGFEKRFVPSQHYVYMFLVKWQDLSEKVVYRRFTEIYEFHKTLKEMFPIEAGAINPENRIIPHLPAPKWFDGQRAAENRQGTLTEYCSTLMSLPTKISRCPHLLDFFKVRPDDLKLPTDNQTKKPETYLMPKDGKSTATDITGPIILQTYRAIANYEKTSGSEMALSTGDVVEVVEKSESGWWFCQMKAKRGWIPASFLEPLDSPDETEDPEPNYAGEPYVAIKAYTAVEGDEVSLLEGEAVEVIHKLLDGWWVIRKDDVTGYFPSMYLQKSGQDVSQAQRQIKRGAPPRRSSIRNAHSIHQRSRKRLSQDAYRRNSVRFLQQRRRQARPGPQSPGSPLEEERQTQRSKPQPAVPPRPSADLILNRCSESTKRKLASAV
For B1, the binding result [1] was “binds” and the stoichiometry N [2] was 2.
